Experimental data taken from the nanobody polyreactivity screen of Harvey et al. (2022).

Assay: yeast display, Sf9 membrane polyspecificity reagent, FACS + sequencing; frameworks hold sequencing errors
Outline: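 A nanobody's polyreactivity label depends on the gate it was sorted from. Yeast display cells were stained with 10% biotinylated, detergent-solubilized Sf9 membrane reagent for 1 hour at 4 °C, enriched on streptavidin microbeads and sorted by FACS. The low and high (top ~1%) gates were set on anti-HA fluorescence for expression and streptavidin fluorescence for reagent binding.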

QVQLVESAGGLVQAGGSLRLSCAASGSIFSPYAMGWYRQAPGKERELVAAITWNGGRTYYADSVKGRFTISRDNAKNTVYLHMNSLKPEDTAVYYCTAASQSRYYYWGQGTQVTVSS
polyreactivity (PSR sort gate): high polyreactivity

QVQLVESGGGLVQAGGSLRLSCAASGSNFAKNAMGWYRQAPGKERELVAAITSSGGSTYYADSVKGRFTISRDNAKNTVYLQMNSLNPEDTAVYYCARPNDWYHYHGWYWSIYRYDYWGQGTQVTVSS
polyreactivity (PSR sort gate): high polyreactivity

QVQLVESGGGLFQAGGSLRLSCAASGSTIQQYAMGWYRQAPGKEREFVAAISWRGGRTYYADSVKGRFTISRDNAKNTVYLQMNRLKPEDTAVYYCAVDPSIYRLSAYYYDYWGQGTQVTVSS
polyreactivity (PSR sort gate): low polyreactivity

QVQLQESGGGLVQAGGSLRLSCAESGTIFRISDMGSYRQAPGKEREFVASITYGANTYYADSGKGRFTISRDNAKNTVYLQMNSLKPEDTAVYYCAVPPVKETILDYWGQGTQVTVCS
polyreactivity (PSR sort gate): low polyreactivity

QVQLVESGGGLVQAGGSLRLSCAASGLIFPYNAMGWYRQAPGKERELVAAIDTRGSSTYYADSVKGRFTISRDNAKNTVYLQMNSLKPEDTAVYYCAADYRVQLRKEYDYWGQGTQVTVSS
polyreactivity (PSR sort gate): high polyreactivity

QVQLVESGGGLFQAGGSLRLSCAASGFTFDYYAMGWYRQAPGKERELVADINRSGGSSYYADSVKGRFTISRDNAKNTVYLQMNSLKPEDTAVYYCNARVTPFFYHYPRDYYYWGQGTQVTVSS
polyreactivity (PSR sort gate): high polyreactivity

QVQLVESGGGLVQAGGSLRLSCAASGIIFYKYAMGWYRQAPGKERELVAAISYSGTSTYYADSVKGRFTISRDNAKNTVYLQINSLKPEDTAVYYCAAVTYVPRSTNGISLYDYWGQGTQVTVSS
polyreactivity (PSR sort gate): high polyreactivity

QVQLVESGGGLVQAGGSLRLSCAASGITLINYAMGWYRQAPGKERELVAAISTSGSSTYYADSVKGRFTISRDNAKNTVYLQMNSLKPEDTAVYYCAAELDVYSLFGYWGQGTQVTVSS
polyreactivity (PSR sort gate): low polyreactivity

QVQLVESGGGLVQAGGSLRLSCAASGITFAYYTMGWYRQAPGKERELVAGISSSGGRTYYADSVKGRFTISRDNAKNTVYLQMNSLKPEDTAVYYCAARFGYRGSTYTLTYGYWGQGTQVTVSS
polyreactivity (PSR sort gate): high polyreactivity

QVQLVESGGGLVQAGGSLRLSCAASGYIFKHYAMGWYIQAPGKERELVAAITSGGRTNYADSVKGRFTISRDNAKNTVFLQMNSLIPEDTAVYYCAARRYRYFDGTVPLDYWGQGTLVTVSS
polyreactivity (PSR sort gate): high polyreactivity

QVQLVESGGGLVQAGGSLRLSCAASGRTFKSYAMGWYRQAPGKERELVAAISSSGGRTFYADSVKGRFTISRDNAKNTVYLQMNSLKPEDTAVYYCNARYCYRYGGYKPVGGYYWGQGTQVTVSS
polyreactivity (PSR sort gate): high polyreactivity

QVQLVESGGGLVQAGGSLRLSCAASGYIFIVNAMGSYRQAPGKERELVAAITDRGGSTYYADSVKGRFTISRDNAKNTVYLQMNSLKPEVTAVYYCAAELVHRLWYRDVHFDYWGQGTQVTVSS
polyreactivity (PSR sort gate): low polyreactivity

QVQLVESGGGLVQAGGSLRLSCAASGRIFAYYAMGWYRQAPGTERELVAAITRRSGGITYYADSVKGRFTISRDNAKNTVYLQMNSLKPEDTAVYYCAARYRLSGKYRFTYDYWGQGTQVTVSS
polyreactivity (PSR sort gate): high polyreactivity

QVQLVESGGGLVKAGGSLRLSCAASGSTFDYYAMGWYRQAPGKERELVAAISGSGGSTYYADSVKGRFTISRDIAKNTVYLQMNSLKPEDTAVYYCATVRSRLFGQYYYWGQGTQVTVSS
polyreactivity (PSR sort gate): high polyreactivity

QVQLVESGGGLVQAGGSLRLSCAASGSTFFRNAMGWYRQAPGKDRELVAAISSSGGRTYYADSVKGRFTISRDNAKNTVYLQMNSLKPVETAVYYCAVVSSHYKGPGRNGYDYWAQGTQVTVSS
polyreactivity (PSR sort gate): high polyreactivity

QVQLVESGGGLVQAGGSLRLSCAASGITTRTYAMGWYRQAPGKDRELVAAISDSGDRTYYADSVKGRCTISRDKAKNTVYLQMNSLKPEDTAVYYCAVDAPGPRGEYWGQGTKVTVSS
polyreactivity (PSR sort gate): low polyreactivity

QVQLVESGGGLVQAGGSLRLSCAASGITFSRNVMGWYRQAPGKERELVAAISRSGGRTYYADSVKGRLTISRDNAKNTVYLQMNSLKPEDTAVYYCNRDIGGTSVLDDYWGQGTQVTVSS
polyreactivity (PSR sort gate): low polyreactivity
